Drawing on doi:10.1101/589580, this text covers partitioning (client fluorescence inside/outside ZO1 droplets) for three substances.

Sequence of full-length ZO1 with C-terminal mEGFP (Q07157 whole entry, the tested form may be a part): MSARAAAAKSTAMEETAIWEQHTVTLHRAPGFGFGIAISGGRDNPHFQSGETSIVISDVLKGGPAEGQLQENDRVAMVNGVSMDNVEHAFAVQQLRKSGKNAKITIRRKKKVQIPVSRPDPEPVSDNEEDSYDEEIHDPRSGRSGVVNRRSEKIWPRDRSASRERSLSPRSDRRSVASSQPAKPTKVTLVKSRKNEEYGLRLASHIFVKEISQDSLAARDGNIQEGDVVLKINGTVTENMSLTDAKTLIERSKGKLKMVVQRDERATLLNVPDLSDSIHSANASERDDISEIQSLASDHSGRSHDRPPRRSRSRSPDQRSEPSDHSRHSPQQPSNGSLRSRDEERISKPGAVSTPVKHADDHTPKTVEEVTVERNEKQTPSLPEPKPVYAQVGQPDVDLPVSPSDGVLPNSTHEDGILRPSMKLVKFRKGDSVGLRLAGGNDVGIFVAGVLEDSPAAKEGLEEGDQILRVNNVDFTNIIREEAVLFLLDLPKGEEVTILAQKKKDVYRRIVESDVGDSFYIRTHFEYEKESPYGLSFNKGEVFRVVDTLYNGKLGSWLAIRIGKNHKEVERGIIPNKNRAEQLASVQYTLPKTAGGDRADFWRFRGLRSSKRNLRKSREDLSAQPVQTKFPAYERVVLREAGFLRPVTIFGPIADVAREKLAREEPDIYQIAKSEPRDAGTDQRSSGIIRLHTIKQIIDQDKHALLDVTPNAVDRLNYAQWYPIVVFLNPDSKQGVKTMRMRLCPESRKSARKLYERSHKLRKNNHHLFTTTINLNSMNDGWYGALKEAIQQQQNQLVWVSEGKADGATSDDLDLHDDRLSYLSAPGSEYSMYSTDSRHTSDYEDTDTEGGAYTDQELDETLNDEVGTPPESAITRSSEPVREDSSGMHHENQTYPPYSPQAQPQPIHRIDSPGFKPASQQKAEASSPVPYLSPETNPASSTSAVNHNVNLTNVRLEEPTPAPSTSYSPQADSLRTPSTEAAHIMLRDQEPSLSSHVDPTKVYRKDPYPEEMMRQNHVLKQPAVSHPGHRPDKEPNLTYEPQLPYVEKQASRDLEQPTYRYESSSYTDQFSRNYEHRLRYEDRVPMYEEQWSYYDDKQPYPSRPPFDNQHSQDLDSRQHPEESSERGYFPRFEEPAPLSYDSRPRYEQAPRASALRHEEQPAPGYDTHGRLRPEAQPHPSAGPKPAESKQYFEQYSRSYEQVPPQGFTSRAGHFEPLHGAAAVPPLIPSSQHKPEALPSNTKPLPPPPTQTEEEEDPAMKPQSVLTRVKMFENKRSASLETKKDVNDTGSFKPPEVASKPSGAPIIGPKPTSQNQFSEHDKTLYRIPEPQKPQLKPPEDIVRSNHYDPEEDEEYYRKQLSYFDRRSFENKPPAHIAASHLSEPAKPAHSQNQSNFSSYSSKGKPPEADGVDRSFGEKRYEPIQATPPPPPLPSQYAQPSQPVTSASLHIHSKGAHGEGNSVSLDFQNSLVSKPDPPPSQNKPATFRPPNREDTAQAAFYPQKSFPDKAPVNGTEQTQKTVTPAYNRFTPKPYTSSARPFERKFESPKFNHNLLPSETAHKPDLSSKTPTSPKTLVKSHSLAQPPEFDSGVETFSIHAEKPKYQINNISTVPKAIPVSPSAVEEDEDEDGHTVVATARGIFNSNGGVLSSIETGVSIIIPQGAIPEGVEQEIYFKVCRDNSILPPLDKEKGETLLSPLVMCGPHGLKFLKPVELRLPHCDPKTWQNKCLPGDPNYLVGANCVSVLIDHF

This experiment addresses full-length ZO1 with C-terminal mEGFP (UniProt Q07157). As to the kind of experiment: client partitioning into phase-separated droplets.
Substance “C-terminal domain of nectin-1 (from UniProt Q15223 31-517) (domain or fragment)” displayed a partitioning (client fluorescence inside/outside ZO1 droplets) of 9 fold.

On to “monomeric actin (from UniProt P60709 1-375) (natural protein)”, for which the partitioning (client fluorescence inside/outside ZO1 droplets) is 22 fold. The value for “C-terminal domain of occludin (from UniProt Q16625 1-522) (domain or fragment)” was 21 fold.
